Measurements as given in US20050124794A1 (published 2005).
Ends that are not written are not given here. * marks the point of attachment. Fmoc = O=C(OCC1c2ccccc2-c2ccccc21)*

B1: Recombinant HKa domain 5 (HKa D5) (ligand)
chain: VSPPHTSMAPAQDEERDSGKEQGHTRRHDWGHEKQRKHNLGHGHKHERDQGHGHQRGHGLGHGHEQQHGLGHGHKFKLDDDLEHQGGHVLDHGHKHKHGHGHGKHKNKGKKNGKHNGWKTEHLAS
notes: also called HK-D5; D5 domain of HKa
B2: Antiangiogenic Ligand-Binding Polypeptide (AALBP), chymotryptic fragment of chicken gizzard Tpm cTPM1 (other)
chain: not shown
B3: Histidine-Proline rich (H/P) domain of HPRG (ligand)
chain: SVNIIHRPPPHGHHPHGPPPHGHHPHGPPPHGHPPHGPPPRHPPHGPPPHGHPPHGPPPHGHPPHGPPPHGHPPHGPPPHGHPPHGHGFHDHGPCDPPSHK
notes: also called HPRG-H/P; HPRG-H/P domain
B4: ATN16 (peptide)
peptide: HKNKGKKN
B5: ATN232 (peptide)
peptide: TRRHDWGH
B6: ATN230 (peptide)
peptide: HHPHG
notes: Synthetic pentapeptide; also called HHPHG
B7: AHPHG (Ala substituted mutant of HHPHG) (peptide)
peptide: AHPHG
B8: ATN228 (peptide)
peptide: HPPHG
notes: also called HPPHG
B9: ATN-278.000.01 (Fmoc N-capped HHPHG) (peptide)
peptide: Fmoc-HHPHG
notes: The text says the N-terminus of the pentapeptide HHPHG was capped
B10: ATN-276.000.01 (4-Chlorobenzyl N-capped HHPHG) (peptide)
peptide: {4‑Chlorobenzyl}-HHPHG
B11: ATN-281.000.01 (3-(1-adamantyl)propanoyl N-capped HHPHG) (peptide)
peptide: {3‑(1-adamantyl)propanoyl}-HHPHG
B12: ATN-275.000.01 ((1S)-(+)-camphorsulphonyl N-capped HHPHG) (peptide)
peptide: HHPHG
modifications: not fully specified (N-terminus)

Experiments:
[1] = molecular target: T1, Chicken gizzard tropomyosin (Tpm), purified (chicken); assay: competition with 10 nM biotin-HKa on plate coated with 200 ng chicken gizzard Tpm, 10 µM ZnCl2
T1 construct: Bought from Sigma and coated on 96-well plates; also called purified Tpm; immobilized Tpm
Procedure: 10 nM biotin-HKa was added to a 96 well plate previously coated with 200 ng of chicken gizzard Tpm in the presence of 10 μM ZnCl₂. Increasing amounts of HK-D5, HPRG-H/P domain or endostatin were added to the wells. Bound biotin-HKa was detected and Kd was calculated as for FIG. 10.
Binding to immobilized Tpm is carried out either by a competition assay with a known ligand, biotin-HKa, or by direct binding of the corresponding biotinylated protein. Plates are coated at room temperature with chicken gizzard Tpm (Sigma) in Tris buffer-saline (TBS) (200 ng/well). After incubation for 2 hours, wells are washed with TBS, then 1% BSA/TBS/Tween-20 is added to each well and incubate at 37° C. for two hours. HKa (Enzyme Laboratories) that had been previously biotinylated with EZ-Link (Pierce) according to the manufacturers instructions, is added to the plate at a concentration of 10 nM together with ZnCl₂ (10 μM) and the appropriate concentration of the protein, domain or peptide competitor. The plates are incubated at room temperature and then washed with TBS/Tween-20. Avidin-HRP is added, incubated for 20 minutes at room temperature, washed with TBS/Tween-20 and the chromogenic substrate is added. The reaction is stopped with sulfuric acid and the plate read at 490 nm.

[2] = molecular target: T1, Chicken gizzard tropomyosin (Tpm), …; assay: competition ELISA against 10 nM biotin-HKa on immobilized chicken gizzard Tpm, 10 uM ZnCl2
[3] = molecular target: T1, Chicken gizzard tropomyosin (Tpm), …; assay: inhibition of binding of 20 nM biotin-HKa to purified immobilized chicken gizzard Tpm; competition against 20 nM biotin-HKa
Procedure: FIGS. 7A-7C show specific binding of HKa to purified immobilized Tpm and its inhibition. […] Plates were incubated with increasing concentrations of biotin-HKa in the absence or presence of 10 μM Zn²⁺. […] The IC₅₀ for this inhibition was about 8.1 nM.

[4] = molecular target: B1; assay: chymotryptic digest of chicken gizzard Tpm on HK-D5-Sepharose in TBS with 10 uM ZnCl2, elution with 2 M NaCl, SDS-PAGE
Procedure: Chicken gizzard Tpm (0.4 mg/ml) was incubated with 5 μg/ml chymotrypsin in TBS pH 7.5 at 37° C. and aliquots were taken at the indicated times. SDS-PAGE sample buffer was added and the sample heated at 80° C. for 4 minutes and then loaded onto and run on a 10% NuPage gel (Invitrogen).
Chicken gizzard Tpm was partially digested with Chymotrypsin as described for FIG. 19 for 100 minutes so that a 20 kDa fragment was enriched. HK-D5 had previously immobilized in an activated Sepharose (CNBr-activated Sepharose 4 B, Amersham Biosciences). The chymotryptic fragments were incubated with the HK-D5-Sepharose resin in TBS containing 10 μM ZnCl₂, washed extensively in the same buffer and eluted in 2 M NaCl. The samples were run in a 10% NuPage gel (Invitrogen).

[5] = molecular target: T1, Chicken gizzard tropomyosin (Tpm), …; assay: displacement of 10 nM biotin-HKa from immobilized chicken gizzard Tpm, 10 µM ZnCl2
Procedure: The IC₅₀ for the displacement of biotinylated-HKa for the peptides shown in Table 5 was determined as follows: 10 nM biotin-HKa is added to a 96 well plate previously coated with 200 ng of chicken gizzard Tpm in the presence of 10 μM ZnCl₂. Increasing amounts of the peptides are added to the wells. The remaining biotin-HKa bound to Tpm was detected using avidin-HRP and a chromogenic substrate. A Kd was determined by non-linear regression analysis of the empirical data. The effect on the Matrigel Plug assay was determined as follows: Matrigel (0.5 mL) containing 400 ng/ml of bFGF, 50 μg/ml heparin with or without the peptide (300 μM) or saline buffer are injected in the flanks of a mouse. After five days, the plugs are removed and the plugs scanned.

[6] = molecular target: T1, Chicken gizzard tropomyosin (Tpm), …; assay: binding to Tpm in vitro; assay not detailed
[7] = molecular target: T1, Chicken gizzard tropomyosin (Tpm), …; assay: displacement of 10 nM biotin-HKa from immobilized chicken gizzard Tpm, 10 µM ZnCl2; remark: listed apart in the source
Procedure: The N-terminus of the pentapeptide HHPHG has been derivatized (capped) in an attempt to increase the pentapeptides' affinity to Tpm by increasing productive molecular contacts (or interactions). […] The IC₅₀ for the displacement of biotinylated-HKa for the capped peptides shown in the table was determined as follows: 10 nM biotin-HKa was added to a 96 well plate previously coated with 200 ng of chicken gizzard Tpm in the presence of 10 μM ZnCl₂. Increasing amounts of the peptides were added to the wells. The remaining biotin-HKa bound to Tpm was detected using avidin-HRP and a chromogenic substrate. A Kd was determined by non-linear regression analysis of the empirical data

T1 sequence (chain, as listed by the source limits assumed): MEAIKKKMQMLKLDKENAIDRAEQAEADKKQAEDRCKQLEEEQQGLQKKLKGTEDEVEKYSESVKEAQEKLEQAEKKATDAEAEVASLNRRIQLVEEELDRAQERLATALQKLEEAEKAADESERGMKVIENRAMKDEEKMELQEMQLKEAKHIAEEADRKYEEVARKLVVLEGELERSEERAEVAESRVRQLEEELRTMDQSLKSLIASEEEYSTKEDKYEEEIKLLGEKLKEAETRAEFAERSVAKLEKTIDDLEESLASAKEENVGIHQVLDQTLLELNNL

## B1
[1]
  fold higher affinity than endostatin: ~1000 fold
[2]
  IC50 (read off the curve): ~0.002 µM
[3]
  IC50: ~0.0081 µM

## B2
[4]
  binding result: binds

## B3
[1]
  fold higher affinity than endostatin: ~1000 fold

## B4
[5]
  IC50: 99.5 µM

## B5
[5]
  IC50: 140 µM

## B6
[5]
  IC50: 121 µM

## B7
[6]
  binding result: no binding

## B8
[5]
  IC50: 150 µM

## B9
[7]
  IC50: 55 µM

## B10
[7]
  IC50: 23 µM

## B11
[7]
  IC50: 59 µM

## B12
[7]
  IC50: 30 µM
